These results are taken from patent US20220017630A1 (JIANGSU SIMCERE PHARMACEUTICAL, published 2022).

Assay [1] concerns the target T1, human TNFR2 on the cell surface (CHO-TNFR2 cells; human Treg cells) (human, UniProt P20333 23-461).
T1 construct: whole, on cells; The assay field of each row says which cells; also called TNFR2-CHO cell; TNFR2 on Treg cells
T1 sequence (looked up): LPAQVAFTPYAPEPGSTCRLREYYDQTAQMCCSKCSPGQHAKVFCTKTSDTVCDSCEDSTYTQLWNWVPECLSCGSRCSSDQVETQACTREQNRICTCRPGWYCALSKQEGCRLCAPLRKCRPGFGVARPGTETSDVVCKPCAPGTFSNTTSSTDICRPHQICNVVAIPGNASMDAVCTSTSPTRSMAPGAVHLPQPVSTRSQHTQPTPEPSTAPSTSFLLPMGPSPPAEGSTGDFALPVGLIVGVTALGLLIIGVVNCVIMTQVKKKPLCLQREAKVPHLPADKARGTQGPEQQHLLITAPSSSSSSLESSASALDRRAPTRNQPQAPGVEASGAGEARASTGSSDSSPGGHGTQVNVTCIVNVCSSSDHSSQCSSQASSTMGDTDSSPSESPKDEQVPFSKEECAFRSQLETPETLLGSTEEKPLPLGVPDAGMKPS
As to the kind of experiment: flow cytometry competition on CHO-TNFR2 cells: antibody first, then human TNFα-biotin, PE-streptavidin; MFI of bound TNFα-biotin [panel #352, table under the plot]. How it is done: (§1) CHO cells that stably overexpressed human TNFR2 were used for experiments. The cells were resuscitated and passaged until in good state, and the expression level of human TNFR2 on the cells was assessed by FACS. Compared to the isotype control, the assay could be carried out when the fold change of mean fluorescence intensity (MFI) was more than 100 times.
(§2) CHO-TNFR2 cells were digested, washed twice with DPBS and stained with Live/Dead (L/D) at room temperature for 20 min, and then seeded at 1×10⁵ cells/50 μl/well. […] The diluted antibodies were added 50 μl/well into wells pre-seeded with cells, and gently blown and mixed to make the final concentrations of the antibodies to 20, 6.67, 2.22, 0.74, 0.247, 0.08, 0.027 and 0 nM, respectively followed by incubation at 4° C. for 30 min. […] After washing twice with the staining buffer, 100 μl/well of PE-streptavidin was added and incubated at 4° C. for 30 min. After additional washing with the staining buffer twice, 150 μl resuspended cells was analyzed using an flow cytometry. Taking the logarithmic value of the antibody concentrations as abscissa and the corresponding MFI value as ordinate, the inhibition curve of the antibody was drawn, and the IC50 value was calculated by four parameters fitting.
Background: In flow cytometry, cells or beads pass a laser one at a time.

In assay [2] the target is T1, human TNFR2 on the cell surface …. Kind of assay: flow cytometry competition on CHO-TNFR2 cells: antibody first, then human TNFα-biotin, PE-streptavidin; MFI of bound TNFα-biotin [panel #365, table under the plot]. How it is done:
as §1, §2

The target is the same in assay [3]. Kind of assay: flow cytometry competition on CHO-TNFR2 cells: antibody first, then human TNFα-biotin, PE-streptavidin; MFI of bound TNFα-biotin [panel #395, table under the plot]. As for the experimental part: as §1, §2
The target is the same in assay [4]. Kind of assay: flow cytometry competition on CHO-TNFR2 cells: antibody first, then human TNFα-biotin, PE-streptavidin; MFI of bound TNFα-biotin [label on D00006), panel #125, table under the plot]. As for the experimental part:
as §1, §2

For assay [5] the target is unchanged. Kind of assay: flow cytometry competition on CHO-TNFR2 cells: antibody first, then human TNFα-biotin, PE-streptavidin; MFI of bound TNFα-biotin [label on D00006), panel #001, table under the plot]. As for the experimental part:
as §1, §2

Assay [6] shares this target. Kind of assay: flow cytometry competition on CHO-TNFR2 cells: antibody first, then human TNFα-biotin, PE-streptavidin; MFI of bound TNFα-biotin [label on D00006), panel #088, table under the plot]. How it is done:
as §1, §2

For assay [7] the target is unchanged. As to the kind of experiment: flow cytometry competition on CHO-TNFR2 cells: antibody first, then human TNFα-biotin, PE-streptavidin; MFI of bound TNFα-biotin [label on D00006), panel #224 (printed twice, bottom left and bottom right), table under the plot]. How it is done: as §1, §2
Assay [8] has the same target. As to the kind of experiment: flow cytometry competition on CHO-TNFR2 cells: antibody first, then human TNFα-biotin, PE-streptavidin; MFI of bound TNFα-biotin [panel #309, table under the plot]. How it is done: as §1, §2
For assay [9] the target is unchanged. As to the kind of experiment: flow cytometry competition on CHO-TNFR2 cells: antibody first, then human TNFα-biotin, PE-streptavidin; MFI of bound TNFα-biotin [label on D00006), panel #133, table under the plot]. As for the experimental part:
as §1, §2

Assay [10] shares this target. Kind of assay: flow cytometry competition on CHO-TNFR2 cells: antibody first, then human TNFα-biotin, PE-streptavidin; MFI of bound TNFα-biotin [panel #226, table under the plot]. As for the experimental part: as §1, §2

Numbering of substitutions follows the chain as printed.

B1: TNFR2 antibody #352 (antibody, V domains shown)
VH: EVQLQESGPGLVAPSQSLSITCTVSGFSLTSYGVHWVRQPPGKGLEWLVVIWSDGGTTYNSALKSRLSISKDNSKSQVFLKMNSLQTDDTAMYYCARHDDDGYYAMDYWGQGTTVTVSS
VL: DIVLTQSPSLMSASPGEKVTMTCSASSSVGYMYWYQQKPRSSPKPWIYLTSNLASGVPARFSGSGSGTSYSLTISSMEVEDAATYYCQQWSSDPFTFGSGTKLEIK
Broadly, the IC50 is the concentration that inhibits the measured activity by half. A high value points to weaker potency in that assay. As to B1, in assay [1], the IC50 was 0.056 mg/L.

B2: TNFR2 antibody #365 (antibody, V domains shown)
VH: EVQLQESGPGLVQPSQSLSITCTVSGFSLTSYGVHWVRQSPGKGLEWLGLIWSDGSPDYSAAFISRLSINKDNSKSQVFFKMNSLQADDTAIYYCARNDDGGDYVMDYWGQGTTVTVSS
VL: B1 VL with D1E, S9A, G30S, V79A, S91T, D93N, F95L, S99A
In turn, B2 registered an IC50 in [2] of 0.041 mg/L.

B3: TNFR2 antibody #395 (antibody, V domains shown)
VH: B2 VH with G10V, G33S, L50V, S56G, P57T, N70S, V105A
VL: B1 VL with D1E, S9A, G30S, V79A, D93N, F95L, S99A
With B3, the IC50 in assay [3] stood at 0.021 mg/L.

B4: TNFR2 antibody #125 (antibody, V domains shown)
VH: EVQLQESGGGLVQPGGSLNLSCAASGFAFSIYDLSWVRQTPEKRLEWVAYINNGGISTYYSDTVKGRFTISRDNAKNTLYLQMSSLKSEDTAMYYCVRGPFYGSANYFDYWGQGTTVTVSS
VL: DIQMTQSPASLSLSVGETVTITCRASENIYSNLAWYQQKQGKSPQLLVYDATKLAEGVPSRFSGSESGTQYSLKINSLQSEDFGTYYCQHFWVTPWTFGGGTKLEIK
B4 yielded a half-maximal inhibitory concentration (IC50) in assay [4] of 0.109 mg/L.

B5: TNFR2 antibody #001 (antibody, V domains shown)
VH: B4 VH with I31T
VL: B4 VL with D1E, Q3V, A25T, N28S, A34P
notes: also called antibody #1
As to B5, in assay [5], the half-maximal inhibitory concentration (IC50) is 0.14 mg/L.

B6: TNFR2 antibody #088 (antibody, V domains shown)
VH: B4 VH with I31T, E42G, S71T
VL: B4 VL with Q3L, S14F
Turning to B6, the IC50 in assay [6] was found to be 0.185 mg/L.

B7: TNFR2 antibody #224 (antibody, V domains shown)
VH: EVQLQESGPEIVKPGASVKLSCTASGFNNKDIYMHWVKQRPEQGLEWIGRIDPATGNTKHDPKFQDKATLSSDTSSNTAYLQFSSLTSEDTAVYYCAHSPYGDFGAMDYWGQGTTVTVSS
VL: DIQMTQSPAIMSASLGERVTMTCTASSSVSSNYLHWYQQKPGSSPKLWIYSTSNLPSGVPARFSGSGSGTSYSLTISSMEAEDAATYYCHQYHRSPWTFGGGTKLEIK
In assay [7], B7 returned an IC50 of 0.128 mg/L.

B8: TNFR2 antibody #309 (antibody, V domains shown)
VH: EVQLQESGAELVKPGASVKLSCKASGYTFTSYWIHWVKLRPGQGFEWIGEINPNNGGTDYNEKFKRKATLTVDKSSSTAYMELSSLTSEDSAIYYCTIDSMITTTWFAYWGQGTTVTVSS
VL: EIVMTQSQKLMSTVVGDRVSVTCKASQNVGTNVAWFQQKPGQSPKALINSASYRYSGVPDRFTGSGSGTDFTLTISSVQSEDLAEYFCQQYNSYPFTFGSGTKLEIK
For B8, the IC50 in assay [8] came out at 0.116 mg/L.

B9: TNFR2 antibody #133 (antibody, V domains shown)
VH: EVQLQESGAELVRSGASVKLSCTASGFNIKDYYIQWVKQRPEQGLEWIGWIDPESGNTKYAPKFQDKATMTADTSSNTAYLQLSGLTSEDSAVYYCNAYYDYDGSMDYWGQGTTVTVSS
VL: DIVMTQSPLSLPVSLGDQASISCRSSQSLVHSNGNTYLHWYLQKPGQSPKLLIYKVSNRFSGVPDRFSGSGSGTDFTLKISRVETDDLGVYFCSQSTHVPTWTFGGGTKLEIK
In turn, B9 gave an IC50 in assay [9] of 0.04 mg/L.

B10: TNFR2 antibody #226 (antibody, V domains shown)
VH: EVQLQESGAELVRPGASVKLSCKASGYSFTNYWMNWVKQRPGQGLEWIGMIHPSDSETRLNQKFKDKATLTVDKSSSTAYMQLSSPTSEDSAVYYCARGEGLGAARSVSMDYWGQGTTVTVSS
VL: DIQMTQSPSSLSASLGDRVTISCRASQDISNYLNWYQQKPDGTVKVLIYYTALLHSGVPSRFSGSGSGTDYSLTISNLEQEDIATYFCQQGNTLPWTFGGGTKLEIK
For the molecule B10, the IC50 in assay [10] came to 0.06 mg/L.
